Tested on: MS2 coat protein
Test: apparent KD of MS2 coat protein; designed switch direction (-1 OFF switch, 1 ON switch): 1; higher = weaker reporter binding
How it was run: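 Transcription of designed RNA switches on Illumina chips was done by stalled E. coli RNA polymerase. SNAP-549-labelled MS2 coat protein was then titrated in doubling steps from 0.7 or 1.5 nM to 3 µM, with steps of 0.8–1.5 h at the lowest and 10–20 min at the highest concentration. The per-design median over clusters of curve-fitted normalised fluorescence is reported as apparent KD.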

[1] = Eterna round: R95, input ligand: FMN 200 uM
[2] = Eterna round: R95, input ligand: microRNA oligo, concentration not stated
[3] = Eterna round: R95, input ligand: none
[4] = input ligand: microRNA oligo, concentration not stated

## CGUCCGGCCUGUGCUGGCCGGUAGCUUGUACAUGAGGAUCACCCAUGUUCAUGUGCUGGCUUUUUGCUCGUCUUGUG [salish99_mir208a_017] (puzzle: Sensor for hsa-mir-208a)
[1]
  apparent KD of MS2 coat protein: 283 nM
[2]
  apparent KD of MS2 coat protein: 27.2 nM
[3]
  apparent KD of MS2 coat protein: 419 nM

## CGUCGCUGUCGAGAGGAUAUGCGGUGAUGGACAUGAGGAUCACCCAUGUUAGCGAUAGCAUCACGGUAGAAGGCUCUUACGACUG [Soteed Omei mod 24] (puzzle: Same State 2)
[1]
  apparent KD of MS2 coat protein: 12.6 nM
[2]
  apparent KD of MS2 coat protein: 20 nM
[3]
  apparent KD of MS2 coat protein: 26.8 nM

## CGUUCUUACUCAGGACGGAGAGUAGAGGAACAUGAGGAUCACCCAUGUAUGAGCUUUUUGCUCGUGAUUAACAGUAG [JR_SHM208a_Sub013] (Eterna round: R96, puzzle: Sensor for hsa-mir-208a)
Input ligand: FMN 200 uM
  apparent KD of MS2 coat protein: 103 nM
[4]
  apparent KD of MS2 coat protein: 55.5 nM
Input ligand: none
  apparent KD of MS2 coat protein: 86.8 nM

## CGUUCUUACUCAGGACGGAGAGUAGAGGAACAUGAGGAUCACCCAUGUAUGAGCUUUUUGCUCGUGAUUAACAGUAG [JR_SHM208a_Sub013] (puzzle: Sensor for hsa-mir-208a)
[1]
  apparent KD of MS2 coat protein: 62.7 nM
[2]
  apparent KD of MS2 coat protein: 95.4 nM
[3]
  apparent KD of MS2 coat protein: 122 nM

## CUAAAACAUGAGGAUCACCCAUGUCAACAAAGUCGAGGAUAUGGGCAAAUAAAAUAAGAACCAGAAGGCGAAUAAU [salish99_SS1_r3_012] (puzzle: Same State 1)
[1]
  apparent KD of MS2 coat protein: 42.3 nM
[2]
  apparent KD of MS2 coat protein: 422 nM
[3]
  apparent KD of MS2 coat protein: 485 nM

## CUCAAAACAAGCUGCAGUGUUCGUCUUUAACAUGAGGAUCACCCAUGUAGUAGCCCGGUGGAAGCGCUCGGGCCACC [Antetera] (puzzle: Sensor for hsa-mir-208a)
[1]
  apparent KD of MS2 coat protein: 44.3 nM
[2]
  apparent KD of MS2 coat protein: 27.8 nM
[3]
  apparent KD of MS2 coat protein: 43.9 nM

## CUCAAAACAAGUUGCAGUGUUCGUCUUUAACAUGAGGAUCACCCAUGUAAUAACCCGGUGGAAGCGCUCGGGCCACC [Gereerle] (puzzle: Sensor for hsa-mir-208a)
[1]
  apparent KD of MS2 coat protein: 25.7 nM
[2]
  apparent KD of MS2 coat protein: 15.5 nM
[3]
  apparent KD of MS2 coat protein: 26.1 nM

## CUCAAACAUGAGGAUCACCCAUGUGUUGUCAUGGGAGGAUAUCCAAGUUCGUUGUAGUCGGGAGAAGGCCUAUGUC [× ×•×ª×• ×ž×“×™× ×” × ×—×ª-12] (puzzle: Same State 1)
[2]
  apparent KD of MS2 coat protein: 139 nM

## CUCAAACAUGAGGAUCACCCAUGUUUUUUCAUGGGAGGAUAUCUAAGUUCAUUAUAUUCAGGAGAAGGCCUAUCUC [× ×•×ª×• ×ž×“×™× ×” × ×—×ª-06] (puzzle: Same State 1)
[1]
  apparent KD of MS2 coat protein: 54.5 nM
[2]
  apparent KD of MS2 coat protein: 36 nM
[3]
  apparent KD of MS2 coat protein: 30.3 nM

## CUCCCAUGUGCACAGGAUAUGCCGGGAUGCACAUGAGGAUCACCCAUGUAAUCCUGAAAAUAAAAGCAGAAGGGUGAUCAUGGGU [Teriqula] (puzzle: Same State 2)
[1]
  apparent KD of MS2 coat protein: 7.24 nM
[2]
  apparent KD of MS2 coat protein: 16.5 nM
[3]
  apparent KD of MS2 coat protein: 13.2 nM

## CUCCCUUGGGUAGGAUAUCUAGGAUAUGGGAAAGACUAAGUCUGUAGGUCACCUAACCCAGAUGGAGAGAAGGACCCAACACUC [pwkr ssNG2 2FMN + F9.39] (Eterna round: R96, puzzle: Same State NG 2)
Input ligand: FMN 200 uM
  apparent KD of MS2 coat protein: 3.66 nM
[4]
  apparent KD of MS2 coat protein: 33.3 nM
Input ligand: none
  apparent KD of MS2 coat protein: 15.8 nM

## CUGAAAUGUCAAGGAUAUCACGUCGAUUAGACGUGAGAAGGUGAUCUACACAUGAGGAUCACCCAUGUGUUACGUGGGAGUCAG [Brourd's SSNG1/1-A2 mod 18] (Eterna round: R96, puzzle: Same State NG 1)
Input ligand: FMN 200 uM
  apparent KD of MS2 coat protein: 82.1 nM
[4]
  apparent KD of MS2 coat protein: 104 nM
Input ligand: none
  apparent KD of MS2 coat protein: 171 nM

## CUGACUUGUCAAGGAUAUCACGUCGAUUAGACGUGAGAAGGUGAUCUACACAUGAGGAUCACCCAUGUGUUACGUGGGAGUCAG [Brourd's SSNG1/1-A2 mod 20] (Eterna round: R96, puzzle: Same State NG 1)
Input ligand: FMN 200 uM
  apparent KD of MS2 coat protein: 34.8 nM
[4]
  apparent KD of MS2 coat protein: 69 nM
Input ligand: none
  apparent KD of MS2 coat protein: 94.7 nM

## CUGAGAAGUCAAGGAUAUCACGUCGAUUAGACGUGAGAAGGUGAUCAGUACAUGAGGAUCACCCAUGUGUUACAUGGAACUCAG [Brourd's SSNG1/1-A2 mod 8] (Eterna round: R96, puzzle: Same State NG 1)
Input ligand: FMN 200 uM
  apparent KD of MS2 coat protein: 1660 nM
[4]
  apparent KD of MS2 coat protein: 367 nM
Input ligand: none
  apparent KD of MS2 coat protein: 1110 nM

## CUGAGAAGUCAAGGAUAUCACGUCGAUUAGACGUGAGAAGGUGAUCAUUACAUGAGGAUCACCCAUGUGUUACAUGGAGCUCAG [Brourd's SSNG1/1-A2 mod 6] (Eterna round: R96, puzzle: Same State NG 1)
Input ligand: FMN 200 uM
  apparent KD of MS2 coat protein: 703 nM
[4]
  apparent KD of MS2 coat protein: 124 nM
Input ligand: none
  apparent KD of MS2 coat protein: 938 nM

## CUGAGAUGUCAAGGAUAUGCUACCGUUUCGGUAGCAGAAGGUGAUCACAUGAGGAUCACCCAUGUAUGCAUGCGUGAGCGUGCU [JL SSNG1 3.59] (Eterna round: R96, puzzle: Same State NG 1)
Input ligand: FMN 200 uM
  apparent KD of MS2 coat protein: 234 nM
[4]
  apparent KD of MS2 coat protein: 36.9 nM
Input ligand: none
  apparent KD of MS2 coat protein: 62 nM

## CUGAGCGAUCAAGGAUAUCACGUCGAAUAGACGUGAGAAGGUGAUCAUAACAUGAGGAUCACCCAUGUAUUACAUGAAGCUCAG [SSNG1/2-A1] (Eterna round: R96, puzzle: Same State NG 1)
Input ligand: FMN 200 uM
  apparent KD of MS2 coat protein: 231 nM
[4]
  apparent KD of MS2 coat protein: 536 nM
Input ligand: none
  apparent KD of MS2 coat protein: 2240 nM

## CUGAGCGAUCAAGGAUAUCACGUCGAAUAGACGUGAGAAGGUGAUCCAUACAUGAGGAUCACCCAUGUAUAACAUGAAGCUCAG [SSNG1/8-A1] (Eterna round: R96, puzzle: Same State NG 1)
Input ligand: FMN 200 uM
  apparent KD of MS2 coat protein: 794 nM
[4]
  apparent KD of MS2 coat protein: 21.6 nM
Input ligand: none
  apparent KD of MS2 coat protein: 404 nM

## CUGCUCGGGUGAGGAUAUGCCGCCGUUUCGGCUGCAGAAGGUGCUACGUUACAUGAGGAUCACCCAUGUCUCUGUUGUUUCGUG [salish99_SSNG1_r04_966] (Eterna round: R96, puzzle: Same State NG 1)
Input ligand: FMN 200 uM
  apparent KD of MS2 coat protein: 108 nM
[4]
  apparent KD of MS2 coat protein: 60.7 nM
Input ligand: none
  apparent KD of MS2 coat protein: 76 nM

## CUGCUCGGGUGAGGAUAUGCCGCCGUUUCGGCUGCAGAAGGUGCUACGUUACAUGAGGAUCACCCAUGUCUCUGUUGUUUCGUU [salish99_SSNG1_r04_965] (Eterna round: R96, puzzle: Same State NG 1)
Input ligand: FMN 200 uM
  apparent KD of MS2 coat protein: 72.1 nM
[4]
  apparent KD of MS2 coat protein: 42.8 nM
Input ligand: none
  apparent KD of MS2 coat protein: 62.2 nM

## CUGCUCGUGUGAGGAUAUGCCGCCGUUUCGGCUGCAGAAGGUGCUACGUUACAUGAGGAUCACCCAUGUCUCUGUUGUUUCGUC [salish99_SSNG1_r04_946] (Eterna round: R96, puzzle: Same State NG 1)
Input ligand: FMN 200 uM
  apparent KD of MS2 coat protein: 25.6 nM
[4]
  apparent KD of MS2 coat protein: 18.7 nM
Input ligand: none
  apparent KD of MS2 coat protein: 31.3 nM

## CUGUGUUGCGGGCAGGAUAUGUACUUGAGUACAUGAGGAUCACCCAUGUGCGGGUGUUUCACCCGACAGAAGGGCCAAUCGCGAC [JL-ss2-3.23 ViennaUCT mod] (puzzle: Same State 2)
[1]
  apparent KD of MS2 coat protein: 68.8 nM
[2]
  apparent KD of MS2 coat protein: 311 nM
[3]
  apparent KD of MS2 coat protein: 1520 nM

## CUGUGUUGCGGGCAGGAUAUGUAUUGGAAUACAUGAGGAUCACCCAUGUGCGGGUGUUUCACCCGACAGAAGGGCCAAUCGCGAC [JL-ss2-3.21 ViennaUCT mod] (puzzle: Same State 2)
[2]
  apparent KD of MS2 coat protein: 266 nM

## CUUUAUCACUAUACAUGAGGAUCACCCAUGUUAUCAUCAUGAGAGGAUAUCGUAAUAGGAUUUUUCGAGAAGGCUCUAAAGUAU [JR_SSNG3_Sub078] (Eterna round: R96, puzzle: Same State NG 3)
Input ligand: FMN 200 uM
  apparent KD of MS2 coat protein: 52.1 nM
[4]
  apparent KD of MS2 coat protein: 167 nM
Input ligand: none
  apparent KD of MS2 coat protein: 142 nM

## GAAAUAAUGUAAGGAUAUACAUGAGGAUUUCUCGUAGAAGGUACAAGACAUGAGGAUCACCCAUGUGUCGCUCCGUAGAGCGUA [Mat - Same State NG 1 - JL mod - D14] (Eterna round: R96, puzzle: Same State NG 1)
[4]
  apparent KD of MS2 coat protein: 125 nM

## GAAUAGUUGAGAGGAUAUCUAUUAUUGUAGGAUAGAGAAGGUUUUAACAUGAGGAUCACCCAUGUAGGACUAUAUAUGUGAAUA [Parity 99 - Jieux - Same State NG 1] (Eterna round: R96, puzzle: Same State NG 1)
Input ligand: FMN 200 uM
  apparent KD of MS2 coat protein: 14.2 nM
[4]
  apparent KD of MS2 coat protein: 12.5 nM
Input ligand: none
  apparent KD of MS2 coat protein: 15.3 nM

## GACAAGCAGGCUUUUUUCUCGUAGUGUAAACAUGAGGAUCACCCAUGUGCCCGCCCUGGAUCUUUGGAUCGCAGGAA [Onlari] (puzzle: Sensor for hsa-mir-208a)
[1]
  apparent KD of MS2 coat protein: 36.4 nM
[2]
  apparent KD of MS2 coat protein: 14.5 nM
[3]
  apparent KD of MS2 coat protein: 35.5 nM

## GACAAUCUAUCUGAGGAUAUCAUGAAUAAAACAUGAGGAUCACCCAUGUGCAGGAUAACUGCAAAUGAGAAGGCAGAUAGAUUGG [Mat - Same State 2 - Mod - D9] (puzzle: Same State 2)
[1]
  apparent KD of MS2 coat protein: 9.21 nM
[2]
  apparent KD of MS2 coat protein: 20 nM
[3]
  apparent KD of MS2 coat protein: 18 nM

## GACAAUCUAUCUGAGGAUAUCAUGAGAAGAACAUGAGGAUCACCCAUGUGCAGGAAAACUGCAUAUGAGAAGGCAGAUAGAUUGG [Mat - Same State 2 - Mod - D17] (puzzle: Same State 2)
[1]
  apparent KD of MS2 coat protein: 47.8 nM
[2]
  apparent KD of MS2 coat protein: 607 nM
[3]
  apparent KD of MS2 coat protein: 3570 nM

## GACCGCGAGGAAGGAUAUGGAGCCUUAAAGGCUCCAGAAGGUCCAUAAAGGACAUGAGGAUCACCCAUGUGGUGAGAAGCGGUC [Mat - Same State NG 1 - JL mod - D75] (Eterna round: R96, puzzle: Same State NG 1)
[4]
  apparent KD of MS2 coat protein: 711 nM

## GACCGCGAGGAAGGAUAUGGAGCCUUAUUGGCUCCAGAAGGUCCAUAAGGGACAUGAGGAUCACCCAUGUGGGUUGAAGCGGUC [Fiskers NG1ss - 35] (Eterna round: R96, puzzle: Same State NG 1)
Input ligand: FMN 200 uM
  apparent KD of MS2 coat protein: 24.6 nM
[4]
  apparent KD of MS2 coat protein: 140 nM
Input ligand: none
  apparent KD of MS2 coat protein: 160 nM
